{"source": "patent US20090252727A1", "about": "(Eli Lilly, published 2009)", "binders": {"B1": {"name": "Fab fragment of antibody example 4 (Fab4) (Fab, V domains shown)", "VH": "QVQLQESGPGLVKPSETLSLTCTVSGDDITSGYHDWIRQPPGKGLEWIGYISYSGSTYYSPSLKSRVTISVDTSKNQFSLKLSSVTAADTAVYYCARPPGYYGFGPYALDYWGQGTLVTVSS", "VL": "DIQMTQSPSSLSASVGDRVTITCSASSSVSYIHWYQQKPGKAPKLLIYTTSYLAHGVPSRFSGSGSGTDFTLTISSLQPEDFATYYCQQRSTLPPTFGGGTKVEIKR", "notes": "Expressed in E. coli; Fab = VL+CL and VH+CH1 (Fc absent); not shown: His tag"}, "B2": {"name": "Fab fragment of antibody example 1 (Fab, V domains shown)", "VH": "B1 VH with H34W", "VL": "B1 VL with I32M, Y52N, Q89W", "notes": "Expressed in E. coli; Fab = VL+CL and VH+CH1 (Fc absent); also called Fab of Ab1; not shown: His tag"}, "B3": {"name": "Fab fragment of antibody example 2 (Fab, V domains shown)", "VH": "B1 VH with H34W, D35N, S60I, L109M", "VL": "B1 VL with A25Y, I32M, Y52N", "notes": "Expressed in E. coli; Fab = VL+CL and VH+CH1 (Fc absent); also called Fab of Ab2; not shown: His tag"}, "B4": {"name": "Fab fragment of antibody example 3 (Fab, V domains shown)", "VH": "B1 VH with H34W", "VL": "B1 VL with Q88L", "notes": "Expressed in E. coli; Fab = VL+CL and VH+CH1 (Fc absent); also called Fab of Ab3; not shown: His tag"}, "B5": {"name": "Fab fragment of antibody example 5 (Fab, V domains shown)", "VH": "B1 VH with Y58Q", "VL": "B1 VL", "notes": "Expressed in E. coli; Fab = VL+CL and VH+CH1 (Fc absent); also called Fab of Ab5; not shown: His tag"}, "B6": {"name": "Fab fragment of antibody example 6 (Fab, V domains shown)", "VH": "B1 VH with G100A", "VL": "B1 VL", "notes": "Expressed in E. coli; Fab = VL+CL and VH+CH1 (Fc absent); also called Fab of Ab6; not shown: His tag"}, "B7": {"name": "Fab fragment of antibody example 7 (Fab, V domains shown)", "VH": "B1 VH with D35E, Y58S, G100A", "VL": "B1 VL", "notes": "Expressed in E. coli; Fab = VL+CL and VH+CH1 (Fc absent); also called Fab of Ab7; not shown: His tag"}, "B8": {"name": "Antibody of example 4 (Ab4) (antibody, human IgG4 S228P, kappa, F234A L235A, V domains shown)", "VH": "B1 VH", "VL": "B1 VL", "notes": "Humanized full antibody with kappa light chain and modified human IgG4 Fc"}, "B9": {"name": "Antibody of example 1 (Ab1) (antibody, human IgG4 S228P, kappa, F234A L235A, V domains shown)", "VH": "B1 VH with H34W", "VL": "B1 VL with I32M, Y52N, Q89W", "notes": "as for B8"}, "B10": {"name": "Antibody of example 2 (Ab2) (antibody, human IgG4 S228P, kappa, F234A L235A, V domains shown)", "VH": "B1 VH with H34W, D35N, S60I, L109M", "VL": "B1 VL with A25Y, I32M, Y52N", "notes": "as for B8"}, "B11": {"name": "Antibody of example 3 (Ab3) (antibody, human IgG4 S228P, kappa, F234A L235A, V domains shown)", "VH": "B1 VH with H34W", "VL": "B1 VL with Q88L", "notes": "as for B8"}, "B12": {"name": "Antibody of example 5 (Ab5) (antibody, human IgG4 S228P, kappa, F234A L235A, V domains shown)", "VH": "B1 VH with Y58Q", "VL": "B1 VL", "notes": "as for B8"}, "B13": {"name": "Antibody of example 6 (Ab6) (antibody, human IgG4 S228P, kappa, F234A L235A, V domains shown)", "VH": "B1 VH with G100A", "VL": "B1 VL", "notes": "as for B8"}, "B14": {"name": "Antibody of example 7 (Ab7) (antibody, human IgG4 S228P, kappa, F234A L235A, V domains shown)", "VH": "B1 VH with D35E, Y58S, G100A", "VL": "B1 VL", "notes": "as for B8"}}, "note": "Changes are numbered by the printed parent chain.", "data": [{"molecular_target": "T1, human glucagon receptor (human, UniProt P47871 27-477)", "T1 construct": "Cloned receptor expressed in 293HEK cells; also called human GluR; human GlucR", "experiment": "competition with [125I]glucagon, SPA, membranes of 293HEK cells expressing the receptor", "units": {"Ki": "nM"}, "values": [{"binder": "B1", "Ki": "< 50"}, {"binder": "B2", "Ki": "< 50"}, {"binder": "B3", "Ki": "< 50"}, {"binder": "B4", "Ki": "< 50"}, {"binder": "B5", "Ki": "< 50"}, {"binder": "B6", "Ki": "< 50"}, {"binder": "B7", "Ki": "< 50"}, {"binder": "B8", "Ki": "< 50"}, {"binder": "B9", "Ki": "< 50"}, {"binder": "B10", "Ki": "< 50"}, {"binder": "B11", "Ki": "< 50"}, {"binder": "B12", "Ki": "< 50"}, {"binder": "B13", "Ki": "< 50"}, {"binder": "B14", "Ki": "< 50"}]}, {"molecular_target": "T2, mouse glucagon receptor (mouse, UniProt Q61606 28-485)", "T2 construct": "Cloned receptor expressed in 293HEK cells; also called murine GluR; mouse GlucR", "T2 chain": "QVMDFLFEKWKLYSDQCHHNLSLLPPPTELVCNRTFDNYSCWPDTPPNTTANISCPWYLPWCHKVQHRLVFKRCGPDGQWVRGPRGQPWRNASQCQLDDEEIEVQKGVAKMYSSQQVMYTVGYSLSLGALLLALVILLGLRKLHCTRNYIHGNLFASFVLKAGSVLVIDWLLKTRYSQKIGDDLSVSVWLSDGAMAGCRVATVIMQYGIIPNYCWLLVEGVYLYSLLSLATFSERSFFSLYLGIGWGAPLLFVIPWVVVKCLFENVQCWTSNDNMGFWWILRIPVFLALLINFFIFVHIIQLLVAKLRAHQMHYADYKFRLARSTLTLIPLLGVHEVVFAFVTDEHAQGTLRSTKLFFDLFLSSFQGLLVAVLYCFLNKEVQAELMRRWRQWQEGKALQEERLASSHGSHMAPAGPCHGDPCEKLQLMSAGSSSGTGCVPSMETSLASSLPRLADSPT", "experiment": "competition with [125I]glucagon, SPA, membranes of 293HEK cells expressing the receptor", "units": {"Ki": "nM"}, "values": [{"binder": "B1", "Ki": "< 50"}, {"binder": "B2", "Ki": "< 50"}, {"binder": "B3", "Ki": "< 50"}, {"binder": "B4", "Ki": "< 50"}, {"binder": "B5", "Ki": "< 50"}, {"binder": "B6", "Ki": "< 50"}, {"binder": "B7", "Ki": "< 50"}, {"binder": "B8", "Ki": "< 50"}, {"binder": "B9", "Ki": "< 50"}, {"binder": "B10", "Ki": "< 50"}, {"binder": "B11", "Ki": "< 50"}, {"binder": "B12", "Ki": "< 50"}, {"binder": "B13", "Ki": "< 50"}, {"binder": "B14", "Ki": "< 50"}]}, {"molecular_target": "T3, rat glucagon receptor (rat, UniProt P30082 28-485)", "T3 construct": "Cloned receptor expressed in 293HEK cells; also called rat GluR; rat GlucR", "experiment": "competition with [125I]glucagon, SPA, membranes of 293HEK cells expressing the receptor", "units": {"Ki": "nM"}, "values": [{"binder": "B1", "Ki": "< 50"}, {"binder": "B2", "Ki": "< 50"}, {"binder": "B3", "Ki": "< 50"}, {"binder": "B4", "Ki": "< 50"}, {"binder": "B5", "Ki": "< 50"}, {"binder": "B6", "Ki": "< 50"}, {"binder": "B7", "Ki": "< 50"}, {"binder": "B8", "Ki": "< 50"}, {"binder": "B9", "Ki": "< 50"}, {"binder": "B10", "Ki": "< 50"}, {"binder": "B11", "Ki": "< 50"}, {"binder": "B12", "Ki": "< 50"}, {"binder": "B13", "Ki": "< 50"}, {"binder": "B14", "Ki": "< 50"}]}, {"molecular_target": "T4, cynomologous monkey glucagon receptor (cynomologous monkey, UniProt P47871 27-477 (human entry))", "T4 construct": "Cloned receptor expressed in 293HEK cells; also called cyno GluR; cyno GlucR", "T4 chain": "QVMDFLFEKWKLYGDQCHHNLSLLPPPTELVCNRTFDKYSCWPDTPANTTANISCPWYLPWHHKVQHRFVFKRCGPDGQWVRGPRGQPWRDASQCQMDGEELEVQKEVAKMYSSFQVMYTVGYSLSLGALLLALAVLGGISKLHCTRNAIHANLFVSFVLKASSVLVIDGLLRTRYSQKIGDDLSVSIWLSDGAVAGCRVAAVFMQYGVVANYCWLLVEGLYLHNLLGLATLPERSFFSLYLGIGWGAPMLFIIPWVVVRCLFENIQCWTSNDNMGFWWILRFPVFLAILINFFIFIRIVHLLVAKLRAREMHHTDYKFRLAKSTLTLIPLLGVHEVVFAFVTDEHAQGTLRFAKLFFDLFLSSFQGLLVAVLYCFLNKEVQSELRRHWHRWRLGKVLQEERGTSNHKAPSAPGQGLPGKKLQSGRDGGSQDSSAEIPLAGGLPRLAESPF", "experiment": "competition with [125I]glucagon, SPA, membranes of 293HEK cells expressing the receptor", "units": {"Ki": "nM"}, "values": [{"binder": "B1", "Ki": "< 50"}, {"binder": "B2", "Ki": "< 50"}, {"binder": "B3", "Ki": "< 50"}, {"binder": "B4", "Ki": "< 50"}, {"binder": "B5", "Ki": "< 50"}, {"binder": "B6", "Ki": "< 50"}, {"binder": "B7", "Ki": "< 50"}, {"binder": "B8", "Ki": "< 50"}, {"binder": "B9", "Ki": "< 50"}, {"binder": "B10", "Ki": "< 50"}, {"binder": "B11", "Ki": "< 50"}, {"binder": "B12", "Ki": "< 50"}, {"binder": "B13", "Ki": "< 50"}, {"binder": "B14", "Ki": "< 50"}]}, {"molecular_target": "T1, human glucagon receptor", "experiment": "competition with [125I]glucagon, SPA, membranes of 293HEK cells expressing the receptor", "remark": "another data set of the same source", "experimental": "(§1) A competitive receptor/ligand binding experiment is adapted to a scintillation proximity assay (SPA) format. Incubations are performed in clear bottom, opaque 96-well microplates. Compound is serially diluted 3-fold in binding buffer consisting of 25 mM Hepes, pH 7.4, 2.5 mM CaCl₂, 1 mM MgCl₂, 0.1% fatty acid free BSA, 0.003% tween-20 and Complete^R EDTA-free protease inhibitor tablets. […] Plates are sealed with adhesive sealing tape, mixed end over end, and incubated at room temperature for 12 hours. The radioactivity bound to the receptor (in close proximity to the WGA SPA bead) is quantified on a PE Life and Analytical Sciences Trilux Microbeta plate scintillation counter and expressed as counts per minute (CPM).", "units": {"Ki": "nM"}, "values": [{"binder": "B1", "Ki": 2.9}, {"binder": "B8", "Ki": 1.34}]}, {"molecular_target": "T2, mouse glucagon receptor", "experiment": "competition with [125I]glucagon, SPA, membranes of 293HEK cells expressing the receptor", "remark": "another data set of the same source", "experimental": "as §1", "units": {"Ki": "nM"}, "values": [{"binder": "B1", "Ki": 2.43}, {"binder": "B8", "Ki": 0.83}]}, {"molecular_target": "T3, rat glucagon receptor", "experiment": "competition with [125I]glucagon, SPA, membranes of 293HEK cells expressing the receptor", "remark": "another data set of the same source", "experimental": "as §1", "units": {"Ki": "nM"}, "values": [{"binder": "B1", "Ki": 3.3}, {"binder": "B8", "Ki": 1.24}]}, {"molecular_target": "T4, cynomologous monkey glucagon receptor", "experiment": "competition with [125I]glucagon, SPA, membranes of 293HEK cells expressing the receptor", "remark": "another data set of the same source", "experimental": "as §1", "units": {"Ki": "nM"}, "values": [{"binder": "B1", "Ki": 9.42}, {"binder": "B8", "Ki": 6}]}]}
